Test results reported in US20140087995A1 (published 2014).
Numbered stars: 1 amine (or outer) side, 2 acyl side, 3 side chain; on linkers, the order of the positions; unused ones are H or OH. Bridge positions count the residues as written; N and C are the ends. Side chains are listed from the residue outwards. Ends that are not written are not given here. * marks the point of attachment. C20 diacid = O=C(O)CCCCCCCCCCCCCCCCCCC(=O)*; C18 diacid = O=C(O)CCCCCCCCCCCCCCCCC(=O)*; γGlu = O=C(O)[C@H](CCC(=O)[*:2])N[*:1]

T1: rat calcitonin receptor (rat, UniProt P32214 25-516)
T1 construct: whole, on cells; Membranes of transiently transfected BHK tk'ts 13 cells (Assay VIII); also called rCTR
T1 sequence (looked up): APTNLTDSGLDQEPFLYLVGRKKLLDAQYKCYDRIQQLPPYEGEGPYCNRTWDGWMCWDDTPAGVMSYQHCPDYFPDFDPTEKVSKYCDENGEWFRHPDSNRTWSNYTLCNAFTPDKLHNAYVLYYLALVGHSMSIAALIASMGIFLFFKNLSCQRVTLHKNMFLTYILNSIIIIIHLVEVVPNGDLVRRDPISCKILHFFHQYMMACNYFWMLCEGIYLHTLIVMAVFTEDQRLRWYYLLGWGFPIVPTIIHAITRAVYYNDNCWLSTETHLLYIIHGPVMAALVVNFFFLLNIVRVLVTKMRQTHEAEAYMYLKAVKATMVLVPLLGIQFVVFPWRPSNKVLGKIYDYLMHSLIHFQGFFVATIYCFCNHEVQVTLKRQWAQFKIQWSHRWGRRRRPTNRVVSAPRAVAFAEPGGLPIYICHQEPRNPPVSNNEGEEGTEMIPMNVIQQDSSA

T2: human calcitonin receptor (human, UniProt P30988 25-474)
T2 construct: whole, on cells; Membranes of a stably transfected BHK cell line (Assay VII); also called hCTR; hCT
T2 sequence (looked up): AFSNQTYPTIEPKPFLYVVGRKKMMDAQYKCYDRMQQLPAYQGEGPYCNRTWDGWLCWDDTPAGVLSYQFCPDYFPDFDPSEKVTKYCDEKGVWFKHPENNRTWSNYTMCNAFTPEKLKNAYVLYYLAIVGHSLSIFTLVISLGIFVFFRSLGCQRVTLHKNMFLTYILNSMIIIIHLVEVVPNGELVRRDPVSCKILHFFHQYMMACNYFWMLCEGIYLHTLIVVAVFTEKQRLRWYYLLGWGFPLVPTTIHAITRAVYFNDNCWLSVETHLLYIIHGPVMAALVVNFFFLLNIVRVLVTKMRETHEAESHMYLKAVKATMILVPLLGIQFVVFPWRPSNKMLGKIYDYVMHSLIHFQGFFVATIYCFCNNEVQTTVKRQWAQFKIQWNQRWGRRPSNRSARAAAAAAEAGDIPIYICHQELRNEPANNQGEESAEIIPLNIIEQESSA

T3: rat amylin receptor (rat calcitonin receptor + rat RAMP 3) (rat, UniProt P32214 25-516; Q9JJ73 23-147)
T3 construct: whole, on cells; Membranes of transiently transfected BHK tk'ts 13 cells (Assay VI); also called rAmylin-R; rat amylin 3(a) receptor
T3 sequence (looked up) 1: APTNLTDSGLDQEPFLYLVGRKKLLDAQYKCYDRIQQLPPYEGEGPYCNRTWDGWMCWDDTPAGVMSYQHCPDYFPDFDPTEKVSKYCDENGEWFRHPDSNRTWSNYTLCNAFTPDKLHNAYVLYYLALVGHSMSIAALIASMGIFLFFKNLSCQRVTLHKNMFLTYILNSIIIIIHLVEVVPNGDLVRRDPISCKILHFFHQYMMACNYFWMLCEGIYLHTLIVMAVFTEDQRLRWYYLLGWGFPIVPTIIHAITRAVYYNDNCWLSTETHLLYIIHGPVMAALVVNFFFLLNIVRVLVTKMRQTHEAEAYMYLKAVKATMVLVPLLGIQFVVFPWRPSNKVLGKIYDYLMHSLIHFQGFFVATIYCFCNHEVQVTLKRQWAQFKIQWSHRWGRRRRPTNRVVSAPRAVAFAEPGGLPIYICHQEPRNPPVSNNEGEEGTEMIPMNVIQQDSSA
T3 sequence (looked up) 2: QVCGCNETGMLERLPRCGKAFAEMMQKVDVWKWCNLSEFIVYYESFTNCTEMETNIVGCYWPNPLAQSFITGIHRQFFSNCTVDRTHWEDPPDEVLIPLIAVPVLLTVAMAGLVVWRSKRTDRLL


What was measured:
rat calcitonin receptor [1] = molecular target: T1, rat calcitonin receptor; test: ratio IC50 rat calcitonin receptor / IC50 rat amylin receptor (reference)
[2] = molecular target: T2, human calcitonin receptor; test: ratio IC50 human calcitonin receptor / IC50 human amylin receptor (reference)
Method in brief: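 Competition binding by SPA with cell membranes (35 ng/μL) and SPA beads in 50 mM Hepes pH 7.4 with 1 mM CaCl2, 5 mM MgCl2, 0.1% OA and 0.02% Tween20. Incubated 120 min at 25 °C with shaking, then counted.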

rat calcitonin receptor [3] = molecular target: T1, rat calcitonin receptor; test: SPA competition with 125I-calcitonin, membranes of BHK cells with rat calcitonin receptor (Assay VIII)
[4] = molecular target: T3, rat amylin receptor (rat calcitonin …); test: SPA competition with 125I-rat amylin, membranes of BHK cells with rat calcitonin receptor + rat RAMP3 (Assay VI)

Binder | Ratio rCT/rAmylin binding (rat calcitonin receptor [1]) | Ratio hCT/hAmylin binding [2] | IC50 (rat calcitonin receptor [3]) | IC50 [4]
K([γGlu-C18 diacid])CNTATCATQRLANFLRHSSPNFGAIPSSTNVGHNTY-NH2 (disulfide 2-7; N-terminus assumed; SMILES CC[C@H](C)[C@H](NC(=O)[C@H](C)NC(=O)CNC(=O)[C@H](Cc1ccccc1)NC(=O)[C@H](CC(N)=O)NC(=O)[C@@H]1CCCN1C(=O)[C@H](CO)NC(=O)[C@H](CO)NC(=O)[C@H](Cc1c[nH]cn1)NC(=O)[C@H](CCCNC(=N)N)NC(=O)[C@H](CC(C)C)NC(=O)[C@H](Cc1ccccc1)NC(=O)[C@H](CC(N)=O)NC(=O)[C@H](C)NC(=O)[C@H](CC(C)C)NC(=O)[C@H](CCCNC(=N)N)NC(=O)[C@H](CCC(N)=O)NC(=O)[C@@H](NC(=O)[C@H](C)NC(=O)[C@@H]1CSSC[C@H](NC(=O)[C@@H](N)CCCCNC(=O)CC[C@H](NC(=O)CCCCCCCCCCCCCCCCC(=O)O)C(=O)O)C(=O)N[C@@H](CC(N)=O)C(=O)N[C@@H]([C@@H](C)O)C(=O)N[C@@H](C)C(=O)N[C@@H]([C@@H](C)O)C(=O)N1)[C@@H](C)O)C(=O)N1CCC[C@H]1C(=O)N[C@@H](CO)C(=O)N[C@@H](CO)C(=O)N[C@H](C(=O)N[C@@H](CC(N)=O)C(=O)N[C@H](C(=O)NCC(=O)N[C@@H](Cc1c[nH]cn1)C(=O)N[C@@H](CC(N)=O)C(=O)N[C@H](C(=O)N[C@@H](Cc1ccc(O)cc1)C(N)=O)[C@@H](C)O)C(C)C)[C@@H](C)O) [N^ε1-[(4S)-4-carboxy-4-(17-carboxyheptadecanoylamino)butanoyl]-[Arg17,Pro21,Pro27,His34]-h-amylin] | 40.3 | 59.4 | 47 nM | 1.17 nM
K([γGlu-C20 diacid])CNTATCATQRLAAFLRHSSPNFGAIPSSTNVGHNTY-NH2 (disulfide 2-7; N-terminus assumed; SMILES CC[C@H](C)[C@H](NC(=O)[C@H](C)NC(=O)CNC(=O)[C@H](Cc1ccccc1)NC(=O)[C@H](CC(N)=O)NC(=O)[C@@H]1CCCN1C(=O)[C@H](CO)NC(=O)[C@H](CO)NC(=O)[C@H](Cc1c[nH]cn1)NC(=O)[C@H](CCCNC(=N)N)NC(=O)[C@H](CC(C)C)NC(=O)[C@H](Cc1ccccc1)NC(=O)[C@H](C)NC(=O)[C@H](C)NC(=O)[C@H](CC(C)C)NC(=O)[C@H](CCCNC(=N)N)NC(=O)[C@H](CCC(N)=O)NC(=O)[C@@H](NC(=O)[C@H](C)NC(=O)[C@@H]1CSSC[C@H](NC(=O)[C@@H](N)CCCCNC(=O)CC[C@H](NC(=O)CCCCCCCCCCCCCCCCCCC(=O)O)C(=O)O)C(=O)N[C@@H](CC(N)=O)C(=O)N[C@@H]([C@@H](C)O)C(=O)N[C@@H](C)C(=O)N[C@@H]([C@@H](C)O)C(=O)N1)[C@@H](C)O)C(=O)N1CCC[C@H]1C(=O)N[C@@H](CO)C(=O)N[C@@H](CO)C(=O)N[C@H](C(=O)N[C@@H](CC(N)=O)C(=O)N[C@H](C(=O)NCC(=O)N[C@@H](Cc1c[nH]cn1)C(=O)N[C@@H](CC(N)=O)C(=O)N[C@H](C(=O)N[C@@H](Cc1ccc(O)cc1)C(N)=O)[C@@H](C)O)C(C)C)[C@@H](C)O, also called compound 93) | 83.2 | 101 | 131 nM | 1.58 nM

Second part, the binder after the results:

Ratio rCT/rAmylin binding (rat calcitonin receptor [1]) | Ratio hCT/hAmylin binding [2] | IC50 (rat calcitonin receptor [3]) | IC50 [4] | Binder
280 | 46.3 | 111 nM | 0.397 nM | K([γGlu-C20 diacid])CNTATCATQRLAAFLRHSSPNFGAIPSSTNVGPNTY-NH2 (disulfide 2-7; N-terminus assumed; SMILES CC[C@H](C)[C@H](NC(=O)[C@H](C)NC(=O)CNC(=O)[C@H](Cc1ccccc1)NC(=O)[C@H](CC(N)=O)NC(=O)[C@@H]1CCCN1C(=O)[C@H](CO)NC(=O)[C@H](CO)NC(=O)[C@H](Cc1c[nH]cn1)NC(=O)[C@H](CCCNC(=N)N)NC(=O)[C@H](CC(C)C)NC(=O)[C@H](Cc1ccccc1)NC(=O)[C@H](C)NC(=O)[C@H](C)NC(=O)[C@H](CC(C)C)NC(=O)[C@H](CCCNC(=N)N)NC(=O)[C@H](CCC(N)=O)NC(=O)[C@@H](NC(=O)[C@H](C)NC(=O)[C@@H]1CSSC[C@H](NC(=O)[C@@H](N)CCCCNC(=O)CC[C@H](NC(=O)CCCCCCCCCCCCCCCCCCC(=O)O)C(=O)O)C(=O)N[C@@H](CC(N)=O)C(=O)N[C@@H]([C@@H](C)O)C(=O)N[C@@H](C)C(=O)N[C@@H]([C@@H](C)O)C(=O)N1)[C@@H](C)O)C(=O)N1CCC[C@H]1C(=O)N[C@@H](CO)C(=O)N[C@@H](CO)C(=O)N[C@H](C(=O)N[C@@H](CC(N)=O)C(=O)N[C@H](C(=O)NCC(=O)N1CCC[C@H]1C(=O)N[C@@H](CC(N)=O)C(=O)N[C@H](C(=O)N[C@@H](Cc1ccc(O)cc1)C(N)=O)[C@@H](C)O)C(C)C)[C@@H](C)O, also called compound 94)
81.1 | 28.5 | 86.1 nM | 1.06 nM | K([γGlu-C20 diacid])CNTATCATQRLAEFLRHSSPNFGAIPSSTNVGRETY-NH2 (disulfide 2-7; N-terminus assumed; SMILES CC[C@H](C)[C@H](NC(=O)[C@H](C)NC(=O)CNC(=O)[C@H](Cc1ccccc1)NC(=O)[C@H](CC(N)=O)NC(=O)[C@@H]1CCCN1C(=O)[C@H](CO)NC(=O)[C@H](CO)NC(=O)[C@H](Cc1c[nH]cn1)NC(=O)[C@H](CCCNC(=N)N)NC(=O)[C@H](CC(C)C)NC(=O)[C@H](Cc1ccccc1)NC(=O)[C@H](CCC(=O)O)NC(=O)[C@H](C)NC(=O)[C@H](CC(C)C)NC(=O)[C@H](CCCNC(=N)N)NC(=O)[C@H](CCC(N)=O)NC(=O)[C@@H](NC(=O)[C@H](C)NC(=O)[C@@H]1CSSC[C@H](NC(=O)[C@@H](N)CCCCNC(=O)CC[C@H](NC(=O)CCCCCCCCCCCCCCCCCCC(=O)O)C(=O)O)C(=O)N[C@@H](CC(N)=O)C(=O)N[C@@H]([C@@H](C)O)C(=O)N[C@@H](C)C(=O)N[C@@H]([C@@H](C)O)C(=O)N1)[C@@H](C)O)C(=O)N1CCC[C@H]1C(=O)N[C@@H](CO)C(=O)N[C@@H](CO)C(=O)N[C@H](C(=O)N[C@@H](CC(N)=O)C(=O)N[C@H](C(=O)NCC(=O)N[C@@H](CCCNC(=N)N)C(=O)N[C@@H](CCC(=O)O)C(=O)N[C@H](C(=O)N[C@@H](Cc1ccc(O)cc1)C(N)=O)[C@@H](C)O)C(C)C)[C@@H](C)O)
49.7 | 146 | 140 nM | 2.83 nM | K([γGlu-C20 diacid])CNTATCATQRLARFLRHSSPNFGAIPSSTNVGSNTY-NH2 (disulfide 2-7; N-terminus assumed; SMILES CC[C@H](C)[C@H](NC(=O)[C@H](C)NC(=O)CNC(=O)[C@H](Cc1ccccc1)NC(=O)[C@H](CC(N)=O)NC(=O)[C@@H]1CCCN1C(=O)[C@H](CO)NC(=O)[C@H](CO)NC(=O)[C@H](Cc1c[nH]cn1)NC(=O)[C@H](CCCNC(=N)N)NC(=O)[C@H](CC(C)C)NC(=O)[C@H](Cc1ccccc1)NC(=O)[C@H](CCCNC(=N)N)NC(=O)[C@H](C)NC(=O)[C@H](CC(C)C)NC(=O)[C@H](CCCNC(=N)N)NC(=O)[C@H](CCC(N)=O)NC(=O)[C@@H](NC(=O)[C@H](C)NC(=O)[C@@H]1CSSC[C@H](NC(=O)[C@@H](N)CCCCNC(=O)CC[C@H](NC(=O)CCCCCCCCCCCCCCCCCCC(=O)O)C(=O)O)C(=O)N[C@@H](CC(N)=O)C(=O)N[C@@H]([C@@H](C)O)C(=O)N[C@@H](C)C(=O)N[C@@H]([C@@H](C)O)C(=O)N1)[C@@H](C)O)C(=O)N1CCC[C@H]1C(=O)N[C@@H](CO)C(=O)N[C@@H](CO)C(=O)N[C@H](C(=O)N[C@@H](CC(N)=O)C(=O)N[C@H](C(=O)NCC(=O)N[C@@H](CO)C(=O)N[C@@H](CC(N)=O)C(=O)N[C@H](C(=O)N[C@@H](Cc1ccc(O)cc1)C(N)=O)[C@@H](C)O)C(C)C)[C@@H](C)O, also called compound 83) [N^ε1-[(4S)-4-carboxy-4-(19-carboxynonadecanoylamino)butanoyl]-[Arg14,Arg17,Pro21,Pro27]-h-amylin]
